From patent US20070010433A1, “Use of compounds capable of inhibiting the proteolytic processing of semaphorins for prevention, treatment, diagnosis and prognosis of an invasive disease” (SEMA APS, priority 2002, published 2007)

What was measured:
SVEC4-10 cells = test: Endothelial cell motility in blindwell chambers (SVEC4-10); format: cell-based, mouse; details: for cell-motility-stimulating activity of purified Sema3E isoform fractions: fractions from heparin-sepharose and size-exclusion chromatography of COS-7 medium
Protocol: 200.000 endothelial mouse lymph nodes SVEC4-10 cells were suspended either in serum free DME/F12 (1:1) medium containing 25 mM Hepes pH 7.4, 0.1% BSA and D-glucose, or conditioned medium collected from cells expressing different Sema3E constructs and were loaded in the top compartments of blindwell chambers. The cells were left to adhere to fibronectin-coated polycarbonate filters within 3 h after seeding, and allowed to migrate through the pores of the filters in the next 3-6 h. Conditioned media from Sema3E or mock transfected 168FARN cells and COS-7 cells transfected with a pcDNA3.1: LacZ were used to examine the effect of the presence of Sema3E in the medium on endothelial cell motility. Migration of SVEC4-10 cells was evaluated after 5 h exposure to the conditioned media with or without Sema3E.
The full-length Sema3E expressed in cells can give a raise to several naturally occurring isoforms of Sema3E, such as for example the truncated p61-Sema3E, a full-length p87-Sema3E, or a dimer p87:p87-Sema3E. The effect of different isoforms of Sema3E on cell motility was studied by using the isoforms purified from conditioned medium collected from tranfected COS-7 cells in the assay described above. The proteins were purified by heparin-sepharose affinity chromatography with following size-exclusion chromatography. All fractions collected from the size-exclusion column were tested for the presence of cell-motility-stimulating activity.

PC12E2 cells = test: Neurite outgrowth from PC12E2 cells; format: cell-based; details: for stimulatory effect on neurite outgrowth: chromatographic fractions of COS-7 conditioned medium, 48 h, compared to negative control (conditioned medium from COS-7 cells without Sema3E proteins)
Protocol: Conditioned medium from COS-7 cells stably transfected with full-length Sema3E was collected and fractionated using heparin-sepharose affinity chromatography and consequent size-exlusion fractionation. Fractions containing different isoforms of Sema3E were collected and tested for neuritogenic activity.
PC12E2 cells were plated on poly-L-lysine coated 48-well plates (Costar) (5,000 cells/well) and grown overnight in DME/F12 medium supplemented with 5% foetal calf serum (FCS) and 10% horse serum (HS) at 37 C°, 5% CO2. The chromatographic fractions were dialyzed against DME/F12 medium without serum, protein concentration was adjusted to 10 μg/ml, and diluted 1:1 in conditioned medium collected from non-transfected COS-7 cells grown for 72 h in serum free DME/F12 medium. PC12E2 cells were incubated with samples of different Sema3E fractions for 48 h, afterwards cells were fixed with 11% glutaraldehyde in PBS, washed in PBS and stained with 0.1% crystal violet in 20% methanol, and neurite outgrowth was quantified. […] A neurite outgrowth index was calculated in each experiment dividing the percentage of neurite outgrowth index in the test sample by the percentage of neurite outgrowth index in response to conditioned medium from COS7 cells without Sema3E proteins (negative control). Other controls were: nerve growth factor (NGF), tested at concentration 500 ng/ml (positive control), and non-fractionated conditioned medium from COS-7 cells expressing full-length Sema3E, tested at concentration 50 μg total protein/mi. Activity was defined as the index divided by 2.
The truncated p61 isoform of Sema3E was further expressed as recombinant protein ([…]) in Pichia pastoris as described above, purified using Ni2+ affinity chromatography and tested in a neurite outgrowth assay described above. […] NGF at (positive control, 125 ng/ml) stimulated neurite outgrowth up to 40%.

[1] = test system: 168FARN mouse tumor cells colonising the lungs; test: Experimental lung metastasis assay with transfected 168FARN cells; format: in vivo, Balb/c mice
Protocol: Non-metastatic 168FARN mouse tumor cells were stably transfected with the pcDNA3.1(−)/zeo^R vector encoding a wild-type Sema3E, or mock transfected with the empty vector as described above. Two clones expressing secreted Sema3E, 168FARN: 2s and 168FARN: 14, and a mock transfected clone, 168FARN: 16 were tested for their ability to colonise the lungs in the experimental metastasis assay as described previously (Christensen et al, 1998, Cancer Res 58:1238-44). Briefly, 10^5 cells were injected in the tail vein of female Balb/c mice (age 8-9 weeks). 4 weeks later the lungs were examined for tumor growth.
168FARN cells were stably transfected with constructs encoding 1-560 amino acid fragment of the sequence Sema3E, which corresponds to 61 kDa fragment of Sema3E (p61-Sema3E), a full-length Sema3E mutated on KRRFRR site (Sema3E(−) (+)myc), and a wild-type full-length Sema3E as described above, and stable clones expressing the proteins were injected to mice to induce the experimental metastasis. 10^5 cells of each clone expressing different constructs were injected into the tail vein of female Balb/c mice. After 24 days the lungs were excised, weighted and scored for the presence of visible lung tumors. The p61-Sema3E clones (two groups: clone#1, n=8; clone#5, n=6) were highly aggressive compared to a control group (injected with the cells expressing a secreted alkaline phosphatase (AP)), showing an increase in overall lung weight at about 300%.

[2] = test system: SVEC4-10 endothelial cells; test: 3D co-culture of SVEC4-10 and 168FARN aggregates in matrigel; format: cell-based, mouse; details: co-culture with transfected 168FARN aggregates 3-5 mm apart, 7 days
Protocol: 100,000 cells in 10 μl were aggregated by incubation in a hanging drop at 37° C. for 4 h. The aggregates were moved onto a layer of solidified ECM gel (matrigel) so, that SVEC4-10 aggregates were placed 3-5 mm apart from the aggregates of 168FARN:AP (clone#3, control clone expressing AP), or 168FARN:p61-Sema3E (clone#5, expressing the non-tagged p61-sema3E isoform), or 168FARN:AP-p61-Sema3E (done#5, expressing the AP-tagged p61 isoform). Another layer of matrigel was added on the top of the aggregates. After 7 days of incubation aggregates were examined for invasive growth.

With heparin [reference compound] the “response of SVEC4-10 cells to p61-Sema3E-MH in presence of soluble heparin” value (SVEC4-10 cells; heparin in the medium at 1-10 μg/ml) was “decreased the response of SVEC4-10 cells to the p61 -Sema3E-MH to the basal level”.

For “NGF: nerve growth factor, positive control [reference compound]”, the “stimulation of neurite outgrowth” value (PC12E2 cells; positive control, 125 ng/ml) was “up to 40%”.

B1: p87:p87-Sema3E dimer: dimer of full-length p87-Sema3E purified from medium of transfected COS-7 cells (protein, UniProt O15041 1-775, looked up)
chain: MASAGHIITLLLWGYLLELWTGGHTADTTHPRLRLSHKELLNLNRTSIFHSPFGFLDLHTMLLDEYQERLFVGGRDLVYSLSLERISDGYKEIHWPSTALKMEECIMKGKDAGECANYVRVLHHYNRTHLLTCGTGAFDPVCAFIRVGYHLEDPLFHLESPRSERGRGRCPFDPSSSFISTLIGSELFAGLYSDYWSRDAAIFRSMGRLAHIRTEHDDERLLKEPKFVGSYMIPDNEDRDDNKVYFFFTEKALEAENNAHAIYTRVGRLCVNDVGGQRILVNKWSTFLKARLVCSVPGMNGIDTYFDELEDVFLLPTRDHKNPVIFGLFNTTSNIFRGHAICVYHMSSIRAAFNGPYAHKEGPEYHWSVYEGKVPYPRPGSCASKVNGGRYGTTKDYPDDAIRFARSHPLMYQAIKPAHKKPILVKTDGKYNLKQIAVDRVEAEDGQYDVLFIGTDNGIVLKVITIYNQEMESMEEVILEELQIFKDPVPIISMEISSKRQQLYIGSASAVAQVRFHHCDMYGSACADCCLARDPYCAWDGISCSRYYPTGTHAKRRFRRQDVRHGNAAQQCFGQQFVGDALDKTEEHLAYGIENNSTLLECTPRSLQAKVIWFVQKGRETRKEEVKTDDRVVKMDLGLLFLRLHKSDAGTYFCQTVEHSFVHTVRKITLEVVEEEKVEDMFNKDDEEDRHHRMPCPAQSSISQGAKPWYKEFLQLIGYSNFQRVEEYCEKVWCTDRKRKKLKMSPSKWKYANPQEKKLRSKPEHYRLPRHTLDS
modifications: full-length dimer
notes: dimer of full-length p87-Sema3E purified from medium of transfected COS-7 cells
With B1 the “stimulatory effect on neurite outgrowth” value (PC12E2 cells) was 28-35% and the “cell-motility-stimulating activity of purified Sema3E isoform fractions” value (SVEC4-10 cells) was “failes to stimulate motility”.

B2: Sema3E: wild-type full-length mouse Sema3E (SEQ ID NO: 1) expressed in 168FARN cells (protein, listed as Mus sp.)
chain: MAPAGHILTLLLWGHLLELWTPGHSANPSYPRLRLSHKELLELNRTSIFQSPLGFLDLHTMLLDEYQERLFVGGRDLVYSLNLERVSDGYREIYWPSTAVKVEECIMKGKDANECANYIRVLHHYNRTHLLTCATGAFDPHCAFIRVGHHSEEPLFHLESHRSERGRGRCPFDPNSSFVSTLVGNELFAGLYSDYWGRDSAIFRSMGKLGHIRTEHDDERLLKEPKFVGSYMIPDNEDRDDNKMYFFFTEKALEAENNAHTIYTRVGRLCVNDMGGQRILVNKWSTFLKARLVCSVPGMNGIDTYFDELEDVFLLPTRDPKNPVIFGLFNTTSNIFRGHAVCVYHMSSIREAFNGPYAHKEGPEYHWSLYEGKVPYPRPGSCASKVNGGKYGTTKDYPDDAIRFARIDPLMYQPIKPVHKKPILVKTDGKYNLRQLAVDRVEAEDGQYDVLFIGTDTGIVLKVITIYNQETEWMEEVILEELQIFKDPAPIISMEISSKRQQLYIGSASAVAQVRFHHCDMYGSACADCCLARDPYCAWDGISCSRYYPTGAHAKRRFRRQDVRHGNAAQQCFGQQFVGDALDRTEERLAYGIESNSTLLECTPRSLQAKVIWFYQKGRDVRKEEVKTDDRVVKMDLGLLFLRVRKSDAGTYFCQTVEHNFVHTVRKITLEVVEEHKVEGMFHKDHEEERHHKMPCPPLSGMSQGTKPWYKEFLQLIGYSNFQRVEEYCEKVWCTDKKRKKLKMSPSKWKYANPQEKRLRSKAEHFRLPRHTLLS
With B2 the “increase of overall weight of the lungs” value ([1]; 10^5 168FARN cells expressing wild-type Sema3E, tail vein, 4 weeks) was 300% and the “lung colonisation / visible lung tumors” value ([1]; 168FARN clones 2s and 14 expressing secreted Sema3E, 4 weeks, versus parental or mock transfected cells) was “colonized the lungs and produced large tumors”.

B3: p61-Sema3E: 1-560 amino acid fragment of Sema3E, 61 kDa truncated isoform from furin cleavage (SEQ ID NO: 3) (protein, listed as Mus sp.)
chain: MAPAGHILTLLLWGHLLELWTPGHSANPSYPRLRLSHKELLELNRTSIFQSPLGFLDLHTMLLDEYQERLFVGGRDLVYSLNLERVSDGYREIYWPSTAVKVEECIMKGKDANECANYIRVLHHYNRTHLLTCATGAFDPHCAFIRVGHHSEEPLFHLESHRSERGRGRCPFDPNSSFVSTLVGNELFAGLYSDYWGRDSAIFRSMGKLGHIRTEHDDERLLKEPKFVGSYMIPDNEDRDDNKMYFFFTEKALEAENNAHTIYTRVGRLCVNDMGGQRILVNKWSTFLKARLVCSVPGMNGIDTYFDELEDVFLLPTRDPKNPVIFGLFNTTSNIFRGHAVCVYHMSSIREAFNGPYAHKEGPEYHWSLYEGKVPYPRPGSCASKVNGGKYGTTKDYPDDAIRFARIDPLMYQPIKPVHKKPILVKTDGKYNLRQLAVDRVEAEDGQYDVLFIGTDTGIVLKVITIYNQETEWMEEVILEELQIFKDPAPIISMEISSKRQQLYIGSASAVAQVRFHHCDMYGSACADCCLARDPYCAWDGISCSRYYPTGAHAKRRFRR
With B3 the “stimulatory effect on neurite outgrowth” value (PC12E2 cells) was 24-39%, the “cell-motility-stimulating activity of purified Sema3E isoform fractions” value (SVEC4-10 cells) was “attractive for SVEC4-10 cells” and the “increase in overall lung weight” value ([1]; 168FARN clones #1 and #5, 10^5 cells tail vein, 24 days, versus control cells expressing secreted alkaline phosphatase (AP)) was “about 300%”. For the same molecule, the “lung weight versus groups with mutated Sema3E(−)(+)myc” value ([1]; 168FARN clones, 24 days, compared to Sema3E(−)(+)myc clones #14 and #6) was “double increase” and the “invasive growth of SVEC4-10 endothelial cells” value [2] was “invasion of SVEC4-10 endothelial cells was observed”.
